# Test results: PMC4695125
# How the values were obtained:
# [1] = biological target: RAGE (receptor for advanced glycation end products), endogenous in MDA-MB-231 cells (human (endogenous in MDA-MB-231)) (UniProt Q15109)
# [2] = biological target: RAGE (receptor for advanced glycation end products), endogenous in MDA-MB-231 cells (human (endogenous in MDA-MB-231)) (UniProt Q15109); remark: listed apart in the source
# Chain of UniProt Q15109 (Q15109 23-404): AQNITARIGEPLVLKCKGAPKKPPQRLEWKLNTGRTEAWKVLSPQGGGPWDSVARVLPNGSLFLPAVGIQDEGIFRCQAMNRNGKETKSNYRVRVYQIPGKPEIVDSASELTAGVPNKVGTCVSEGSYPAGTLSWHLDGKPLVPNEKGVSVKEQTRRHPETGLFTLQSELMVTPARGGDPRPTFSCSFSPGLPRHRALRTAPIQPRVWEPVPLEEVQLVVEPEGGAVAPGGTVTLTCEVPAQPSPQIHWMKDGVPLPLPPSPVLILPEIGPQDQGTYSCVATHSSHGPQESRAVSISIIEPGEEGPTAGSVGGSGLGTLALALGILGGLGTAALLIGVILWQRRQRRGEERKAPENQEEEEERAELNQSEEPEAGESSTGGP
cytoplasmic histone-associated DNA fragmentation in ASA-pretreated MDA-MB-231 cells after removal of Ac-APE1/Ref-1 with an anti-APE1/Ref-1 antibody (2 ug) (% of the control level) [1],phosphorylation of p38 MAPK at Tyr182 in MDA-MB-231 cells treated with 5 mM ASA (3 h to 24 h) [2] [%],Substance,cell viability of ASA-pretreated MDA-MB-231 cells after removal of Ac-APE1/Ref-1 with an anti-APE1/Ref-1 antibody (2 ug) [1] [%]
33,–,recombinant human acetylated APE1/Ref-1 (apurinic apyrimidinic endonuclease 1/redox factor-1) (from UniProt P27695 1-318) (natural protein),80
–,62,secreted acetylated APE1/Ref-1 from ASA/TSA-treated MDA-MB-231 cells (from UniProt P27695 1-318) (natural protein),–
